Data: publication PMC12727980

What was measured:
[1] = biological target: T1, GST-KH (Bicc1 KH domains) (UniProt Q99MQ1); assay: EMSA; details: EMSA buffer 1X: 10 mM Tris-HCl pH 8.0, 100 mM KCl, 2.5 mM MgCl2, 2.5% glycerol (slightly below 1X in some mixes); about 1 mM DTT, 0.05 ug/uL yeast tRNA; 50 nM …
T1 sequence (Q99MQ1 whole entry, looked up): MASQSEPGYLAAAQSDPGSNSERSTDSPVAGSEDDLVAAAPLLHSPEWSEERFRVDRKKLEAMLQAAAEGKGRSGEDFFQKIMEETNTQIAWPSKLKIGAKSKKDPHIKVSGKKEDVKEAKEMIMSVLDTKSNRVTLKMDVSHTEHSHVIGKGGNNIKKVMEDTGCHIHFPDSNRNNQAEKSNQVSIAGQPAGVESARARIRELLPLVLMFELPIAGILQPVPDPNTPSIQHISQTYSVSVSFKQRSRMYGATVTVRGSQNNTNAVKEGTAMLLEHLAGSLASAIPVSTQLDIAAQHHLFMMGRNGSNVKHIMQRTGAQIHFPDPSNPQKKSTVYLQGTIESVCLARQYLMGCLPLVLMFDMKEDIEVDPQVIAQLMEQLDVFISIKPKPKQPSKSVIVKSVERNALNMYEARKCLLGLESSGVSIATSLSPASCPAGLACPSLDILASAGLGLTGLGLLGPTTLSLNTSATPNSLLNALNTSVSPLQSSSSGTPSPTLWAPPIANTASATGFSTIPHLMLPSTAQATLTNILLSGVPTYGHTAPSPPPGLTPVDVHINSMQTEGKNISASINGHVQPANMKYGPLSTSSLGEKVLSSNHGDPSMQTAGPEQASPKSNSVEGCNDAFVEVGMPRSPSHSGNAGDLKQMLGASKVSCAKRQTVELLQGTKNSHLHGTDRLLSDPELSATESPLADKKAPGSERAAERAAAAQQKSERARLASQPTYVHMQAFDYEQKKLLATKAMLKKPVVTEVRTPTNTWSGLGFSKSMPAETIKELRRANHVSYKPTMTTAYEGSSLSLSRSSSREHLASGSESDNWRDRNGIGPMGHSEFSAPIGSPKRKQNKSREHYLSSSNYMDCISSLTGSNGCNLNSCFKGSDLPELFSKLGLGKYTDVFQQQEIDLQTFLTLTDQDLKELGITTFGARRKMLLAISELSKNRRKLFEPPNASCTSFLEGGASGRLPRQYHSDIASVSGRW

[2] = biological target: T1, GST-KH (Bicc1 KH domains); assay: competition; details: EMSA buffer 1X: 10 mM Tris-HCl pH 8.0, 100 mM KCl, 2.5 mM MgCl2, 2.5% glycerol (slightly below 1X in some mixes); about 1 mM DTT, 0.05 ug/uL yeast tRNA; 50 nM …

Sequence	Kd [1]	IC50 [2]
GAAGAAAGACGUGACCUGAAUGAUGUGCAUCGGGUCAAGAGAGCAGAAUGUCUGGGCAACAGGCUCAGG / CTGAGCCTGTTGCCCAGAC [Dand5 3'UTR66-110 WT Tag#1 annealed to Probe #1]	103 nM	–
GAAGAAAGACGUGACCUGAAUGAUGUGCAUCGGGUCAAGAGAGCAGAAACACGUACCGAGAUGGUGCGC / CGCACCATCTCGGTACGTG [Dand5 3'UTR66-110 WT Tag#2 annealed to Probe #2]	109 nM	–
GAAGAAAAAGGUGACCUGAAUGAUGUGCAUCGGGUCAAGAGAGCAGAA [Dand5 3'UTR66-110 Mut untagged competitor]	–	> 1000 nM
